Changes are numbered by the printed parent chain.
B1: rabbit monoclonal anti-mouse/human Id3, clone #BCH-4/#16-1 (antibody, V domains shown)
VH: QSVEESGGRLVTPGTPLTLTCTASGFSLSSYYIHWVRQAPGKALEWIGYISDGGTTYYASWAKGRFTISKTSSTTVDLKMTSLTTEDTATYFCARQGFNIWGPGTLVTVSL
VL: AVLTQTPSPVSAAVGGTVTISCQSSQSVYNNNWLSWFQQKSGQPPKLLIYETSKLESGVPSRFKGSGSGTQFTLTIIDVQCDDAATYYCLGGYWTTSDNNIFGGGTEVVVK
notes: Rabbit IgG from a rabbit hybridoma; also called m/h Id3 MoAb 16-1
B2: rabbit monoclonal anti-mouse/human Id3, clone #BCH-4/#6-1 (antibody, V domains shown)
VH: B1 VH with S30N, Y31V, A43G, G54D, T56A, Y57R, S60T, D77N
VL: B1 VL with T19S, Y29W, S41P, I77S, I101V
notes: Rabbit IgG from a rabbit hybridoma; also called m/h Id3 MoAb 6-1
B3: rabbit monoclonal anti-mouse/human Id3, clone #BCH-4/#17-3 (antibody, V domains shown)
VH: B1 VH with S30N, Y31V, A43G, G54D, T56A, Y57R, S60T, D77N
VL: B1 VL with T19S, Y29W, S41P, I77S, I101V
notes: Rabbit IgG from a rabbit hybridoma; also called m/h Id3 MoAb 17-3; BCH-3/#17-3
B4: rabbit monoclonal anti-mouse/human Id3, clone #BCH-4/#42-1 (antibody, V domains shown)
VH: B1 VH
VL: B1 VL with T95S
notes: Rabbit IgG from a rabbit hybridoma; also called m/h Id3 MoAb 42-1
B5: rabbit monoclonal anti-human Id3, clone #BCH-4/#3-3 (antibody, V domains shown)
VH: QSVEESGGRLVTPGTPLTLTCTVSGIDLSSYAMSWVRQAPGKGLEWIGVIFPSNNVYYASWAKGRFTISKTSTTVDLKITSPTTEDTATYFCASMGAFDSWGPGTLVTVSS
VL: QVLTQTPSPVSAAVGGTVTINCQASQSIYNDNDLAWFQQKPGQPPKLLIYDASTLTSGVPSRFKGSGSGTQFTLTISDLDCDDAATYYCAARYSGNIYGFGGGTEVVVK
notes: Rabbit IgG from a rabbit hybridoma; also called h Id3 MoAb 3-3

target: T1, Mouse Id3: Histidine (mouse, UniProt P41133 1-119); assay: ELISA, Ab 0.250 µg/ml
T1 construct: Fusion protein made in E. coli from vector pGW07; also called m-Id3: His; Mouse Id3 (coated wells); not shown: His tag
T1 sequence: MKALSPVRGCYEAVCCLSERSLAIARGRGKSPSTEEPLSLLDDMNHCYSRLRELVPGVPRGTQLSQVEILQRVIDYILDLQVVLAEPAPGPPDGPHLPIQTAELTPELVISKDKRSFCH
Procedure: (§1) The rabbit monoclonal anti-human Id3 (clone #3-3) and the rabbit monoclonal anti-mouse/human Id3 (clones #6-1, 16-1, 17-3, and 42-1) produced in Example 6 were tested reactivity against the following antigens: mouse Id1:His, human Id1:His, mouse Id2:His, human Id2:His, mouse Id3:His, human Id3:His, mouse Id4:His, human Id4:His and GST.
(§2) 1. Microtiter wells (prepared in accordance with Example 6) were coated (0.1 μg/well) with mouse Id1:His, human Id1:His, human Id2:His, human Id3:His, and 1.0 μg/well with GST. [0155] 2. Antibody Diluent: 0.25% (w/v) BSA in 0.015M KPO₄ Buffer, 0.85% (w/v) NaCl, 0.1% (w/v) NaN₃, pH=7.40 [0156] 3. Rabbit monoclonal anti-human Id3 (clone #3-3) prepared in Example 7 was diluted to […] with the antibody diluent. […] 4. Rabbit monoclonal anti-mouse/human Id3 (clones #6-1, 16-1, 17-3, 42-1) prepared in Example 7 was diluted to 0.005, 0.010, 0.025, 0.05, 0.10, 0.25, and 0.50 μg/ml with the antibody diluent. […] 5. Conjugate Diluent: 50% (v/v) which consists of an aqueous solution containing Fetal Bovine Serum in 0.05 M Tris, 1% (v/v) Proclin-300, pH 7.6. [0159] 6. Conjugate: Goat anti-rabbit IgG (H+L)-HRP conjugate. [0160] 7. TMB reagent. […] 8. Stop solution (1 N HCI). Method
(§3) 1. Dispense 100 μL of antibody diluent, diluted rabbit monoclonal human Id3, and mouse/human Id3 hybridoma supernatants into appropriate wells. […] 2. Incubate at room temperature with mechanical shaking at 750 rpm for 90 minutes. [0165] 3. Remove the incubation mixture by flicking plate content into an appropriate waste container followed by rinsing the wells 5 times with distilled water. [0166] 4. Strike the wells sharply onto absorbent paper or paper towels to remove all residual water droplets. [0167] 5. Dispense 100 μL of 1:50,000 Goat Anti-Rabbit IgG-HRP Conjugate Reagent into each well. Gently mix for 5 seconds. [0168] 6. Incubate at room temperature with mechanical shaking at 750 rpm for 90 minutes. [0169] 7. Repeat procedures 3 and 4. [0170] 8. Dispense 100 μL of TMB Reagent into each well. Gently mix for 5 seconds. [0171] 9. Incubate at room temperature with mechanical shaking at 750 rpm for 20 minutes. […] 10.

Binder | A450
B1 | 3.21 A450
B2 | 3.42 A450
B3 | 3.62 A450
B4 | 3.55 A450

target: T2, Human Id1: Histidine (human, UniProt P41134 1-155, limits assumed); assay: ELISA, Ab 0.250 µg/ml
T2 construct: Fusion protein made in E. coli from vector pGW07; also called h-Id1: his; not shown: His tag
T2 sequence (looked up): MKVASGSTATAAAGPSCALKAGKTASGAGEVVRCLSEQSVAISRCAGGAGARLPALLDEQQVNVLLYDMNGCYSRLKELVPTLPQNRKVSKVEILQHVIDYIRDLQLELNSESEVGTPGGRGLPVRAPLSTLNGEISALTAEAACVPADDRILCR
Procedure: as §1, §2, §3

Binder | A450
B5 | 0.047 A450
B1 | 0.045 A450
B2 | 0.051 A450
B3 | 0.045 A450
B4 | 0.044 A450

target: T3, Mouse Id1: Histidine (mouse, UniProt P20067-2 1-148, limits assumed); assay: ELISA, Ab 0.250 µg/ml
T3 construct: Fusion protein made in E. coli from vector pGW07; also called m-Id1-His; not shown: His tag
T3 sequence (looked up): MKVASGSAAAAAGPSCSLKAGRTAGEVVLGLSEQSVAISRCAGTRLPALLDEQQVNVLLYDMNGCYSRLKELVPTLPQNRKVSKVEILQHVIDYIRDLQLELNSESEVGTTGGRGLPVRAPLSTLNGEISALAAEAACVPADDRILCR
Procedure: as §1, §2, §3

Binder | A450
B5 | 0.048 A450
B1 | 0.047 A450
B2 | 0.048 A450
B3 | 0.052 A450
B4 | 0.054 A450

Target: T4, Human Id3: Histidine (human, UniProt Q02535 1-119 at identity 1.00))
T4 construct: Fusion protein made in E. coli from vector pGW07; also called h-Id3: His; Human Id3 (coated wells); not shown: His tag
T4 chain: T1 sequence with S31G, S33A, T34A, T105A, K112N
Assay: ELISA, Ab 0.250 µg/ml
Procedure: as §1, §2, §3

Binder | A450
B1 | 2.83 A450
B2 | 3.02 A450
B3 | 3.32 A450
B4 | 3.31 A450

target: T5, glutathione S-transferase (GST) (UniProt P08515 1-218 = GST); assay: ELISA, Ab 0.250 µg/ml
T5 construct: also called carrier protein GST
T5 sequence (P08515 whole entry): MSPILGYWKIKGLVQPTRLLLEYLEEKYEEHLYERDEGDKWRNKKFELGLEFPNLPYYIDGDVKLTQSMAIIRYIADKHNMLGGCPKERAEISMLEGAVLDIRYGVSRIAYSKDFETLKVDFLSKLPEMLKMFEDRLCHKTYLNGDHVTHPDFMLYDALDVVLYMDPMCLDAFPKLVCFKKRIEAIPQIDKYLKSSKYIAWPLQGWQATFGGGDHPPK
Procedure: as §1, §2, §3

Binder | A450
B5 | 0.048 A450
B1 | 0.048 A450
B2 | 0.051 A450
B3 | 0.052 A450
B4 | 0.051 A450

target: T6, Human Id2: Histidine (human, UniProt Q02363 1-134, limits assumed); assay: ELISA, Ab 0.250 µg/ml
T6 construct: Fusion protein made in E. coli from vector pGW07; also called h-Id2: His; not shown: His tag
T6 sequence (looked up): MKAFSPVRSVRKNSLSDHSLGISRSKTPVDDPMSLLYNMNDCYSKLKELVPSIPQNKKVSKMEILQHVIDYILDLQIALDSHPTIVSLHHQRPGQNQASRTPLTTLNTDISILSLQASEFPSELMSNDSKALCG
Procedure: as §1, §2, §3

Binder | A450
B5 | 0.054 A450
B1 | 0.052 A450
B2 | 0.056 A450
B3 | 0.054 A450
B4 | 0.051 A450

target: T7, Mouse Id2: Histidine (mouse, UniProt P41136 1-134, limits assumed); assay: ELISA, Ab 0.250 µg/ml
T7 construct: Fusion protein made in E. coli from vector pGW07; also called m-Id2: His; not shown: His tag
T7 sequence (looked up): T6 sequence (looked up) with S60T, A131V
Procedure: as §1, §2, §3

Binder | A450
B5 | 0.051 A450
B1 | 0.063 A450
B2 | 0.062 A450
B3 | 0.064 A450
B4 | 0.063 A450

target: T5, glutathione S-transferase (GST); assay: ELISA, Ab 0.005 µg/ml

Binder | A450
B5 | 0.045 A450
B1 | 0.048 A450
B2 | 0.046 A450
B3 | 0.048 A450
B4 | 0.048 A450

target: T2, Human Id1: Histidine; assay: ELISA, Ab 0.100 µg/ml
Procedure: as §1, §2, §3

Binder | A450
B5 | 0.047 A450
B1 | 0.047 A450
B2 | 0.049 A450
B3 | 0.048 A450
B4 | 0.047 A450

Target: T4, Human Id3: Histidine
Assay: ELISA, Ab 0.100 µg/ml
Procedure: as §1, §2, §3

Binder | A450
B1 | 1.99 A450
B2 | 2.36 A450
B3 | 2.6 A450
B4 | 2.6 A450

target: T6, Human Id2: Histidine; assay: ELISA, Ab 0.100 µg/ml
Procedure: as §1, §2, §3

Binder | A450
B5 | 0.048 A450
B1 | 0.048 A450
B2 | 0.049 A450
B3 | 0.048 A450
B4 | 0.046 A450
